Assay results as given in US20120039865A1 (YALE UNIVERSITY, published 2012).

T1: rat sortilin (Sort1) on E18 rat cortical neurons (rat, UniProt O54861 74-825)
T1 construct: Native receptor on cultured rat neurons
T1 sequence: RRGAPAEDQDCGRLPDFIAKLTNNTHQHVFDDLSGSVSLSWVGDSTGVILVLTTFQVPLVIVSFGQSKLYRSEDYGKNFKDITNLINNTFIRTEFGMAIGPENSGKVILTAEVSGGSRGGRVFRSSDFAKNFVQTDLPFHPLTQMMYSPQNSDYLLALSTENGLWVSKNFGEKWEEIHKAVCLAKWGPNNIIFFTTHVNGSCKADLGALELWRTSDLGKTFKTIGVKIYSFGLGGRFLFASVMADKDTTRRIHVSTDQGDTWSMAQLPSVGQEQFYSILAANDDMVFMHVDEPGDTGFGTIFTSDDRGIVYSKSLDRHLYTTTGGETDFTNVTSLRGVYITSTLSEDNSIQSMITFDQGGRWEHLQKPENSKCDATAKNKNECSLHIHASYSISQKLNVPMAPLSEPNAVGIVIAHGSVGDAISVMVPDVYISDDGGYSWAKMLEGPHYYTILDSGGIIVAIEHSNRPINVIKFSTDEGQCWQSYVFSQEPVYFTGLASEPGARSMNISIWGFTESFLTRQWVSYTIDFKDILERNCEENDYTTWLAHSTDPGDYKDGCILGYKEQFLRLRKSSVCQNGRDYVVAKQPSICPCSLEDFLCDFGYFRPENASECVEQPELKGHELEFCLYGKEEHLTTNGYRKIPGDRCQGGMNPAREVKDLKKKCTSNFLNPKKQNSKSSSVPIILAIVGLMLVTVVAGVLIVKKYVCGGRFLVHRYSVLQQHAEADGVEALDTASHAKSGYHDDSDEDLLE

T2: mouse sortilin-1 (Sort1; GenBank Accession No. NM 019972) expressed in COS-7 cells (mouse, UniProt Q6PHU5 74-825)
T2 construct: cDNA clone from a mouse library, transfected into COS-7 cells; also called PGRN-R; PGRN receptor
T2 sequence: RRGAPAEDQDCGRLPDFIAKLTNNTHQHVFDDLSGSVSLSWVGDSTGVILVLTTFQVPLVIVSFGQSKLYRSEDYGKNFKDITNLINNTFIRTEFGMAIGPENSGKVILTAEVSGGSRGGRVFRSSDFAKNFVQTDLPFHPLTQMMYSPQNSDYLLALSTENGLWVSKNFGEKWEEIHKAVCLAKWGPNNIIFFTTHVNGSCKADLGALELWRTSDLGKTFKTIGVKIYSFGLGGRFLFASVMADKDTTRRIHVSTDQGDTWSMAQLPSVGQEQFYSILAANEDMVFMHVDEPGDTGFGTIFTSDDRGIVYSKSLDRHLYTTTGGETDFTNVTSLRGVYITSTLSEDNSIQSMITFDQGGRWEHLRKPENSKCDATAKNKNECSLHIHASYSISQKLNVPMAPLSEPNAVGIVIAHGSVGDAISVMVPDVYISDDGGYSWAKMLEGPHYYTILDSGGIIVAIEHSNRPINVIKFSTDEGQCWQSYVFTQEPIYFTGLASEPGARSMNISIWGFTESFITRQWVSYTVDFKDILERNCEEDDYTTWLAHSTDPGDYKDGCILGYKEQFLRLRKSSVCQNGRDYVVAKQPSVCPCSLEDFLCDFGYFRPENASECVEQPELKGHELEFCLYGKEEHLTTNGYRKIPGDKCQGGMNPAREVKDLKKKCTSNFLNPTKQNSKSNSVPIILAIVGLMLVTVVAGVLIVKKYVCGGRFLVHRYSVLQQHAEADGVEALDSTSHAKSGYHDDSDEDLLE

T3: mouse SorCS1 (GenBank Accession No. BC007486) expressed in COS-7 cells (mouse, UniProt Q9JLC4 34-1167)
T3 construct: whole, on cells
T3 sequence (looked up): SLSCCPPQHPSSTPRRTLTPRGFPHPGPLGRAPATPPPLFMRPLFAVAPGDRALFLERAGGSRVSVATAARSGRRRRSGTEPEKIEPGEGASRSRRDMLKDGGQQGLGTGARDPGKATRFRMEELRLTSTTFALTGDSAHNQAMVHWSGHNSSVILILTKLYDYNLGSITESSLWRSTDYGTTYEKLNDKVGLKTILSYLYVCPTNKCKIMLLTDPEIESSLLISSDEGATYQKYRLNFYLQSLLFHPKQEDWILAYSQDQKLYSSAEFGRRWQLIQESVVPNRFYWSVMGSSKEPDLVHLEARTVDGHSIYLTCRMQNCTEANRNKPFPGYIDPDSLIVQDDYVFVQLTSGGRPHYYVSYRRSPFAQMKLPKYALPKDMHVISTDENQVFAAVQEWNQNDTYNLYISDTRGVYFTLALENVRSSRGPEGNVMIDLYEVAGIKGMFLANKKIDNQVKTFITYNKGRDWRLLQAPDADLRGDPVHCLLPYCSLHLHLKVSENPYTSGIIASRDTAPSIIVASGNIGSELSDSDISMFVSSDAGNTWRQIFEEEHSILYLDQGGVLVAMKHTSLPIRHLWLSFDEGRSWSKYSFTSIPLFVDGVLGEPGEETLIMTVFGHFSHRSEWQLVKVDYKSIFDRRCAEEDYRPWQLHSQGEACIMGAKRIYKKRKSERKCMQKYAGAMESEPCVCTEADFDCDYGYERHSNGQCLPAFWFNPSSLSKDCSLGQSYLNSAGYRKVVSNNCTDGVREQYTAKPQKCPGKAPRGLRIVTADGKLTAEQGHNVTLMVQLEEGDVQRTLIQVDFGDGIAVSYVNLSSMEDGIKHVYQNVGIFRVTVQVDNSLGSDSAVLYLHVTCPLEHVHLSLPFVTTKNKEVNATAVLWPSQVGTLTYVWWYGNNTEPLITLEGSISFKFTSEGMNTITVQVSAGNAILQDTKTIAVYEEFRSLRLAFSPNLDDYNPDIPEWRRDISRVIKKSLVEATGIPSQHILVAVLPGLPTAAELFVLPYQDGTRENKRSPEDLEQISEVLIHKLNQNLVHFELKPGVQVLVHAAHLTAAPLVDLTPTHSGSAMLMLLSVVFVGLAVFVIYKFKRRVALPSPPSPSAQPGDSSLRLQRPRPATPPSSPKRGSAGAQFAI

B1: alkaline-phosphatase (AP) alone (enzyme, UniProt P05187 23-511, looked up)
chain: IIPVEEENPDFWNREAAEALGAAKKLQPAQTAAKNLIIFLGDGMGVSTVTAARILKGQKKDKLGPEIPLAMDRFPYVALSKTYNVDKHVPDSGATATAYLCGVKGNFQTIGLSAAARFNQCNTTRGNEVISVMNRAKKAGKSVGVVTTTRVQHASPAGTYAHTVNRNWYSDADVPASARQEGCQDIATQLISNMDIDVILGGGRKYMFRMGTPDPEYPDDYSQGGTRLDGKNLVQEWLAKRQGARYVWNRTELMQASLDPSVTHLMGLFEPGDMKYEIHRDSTLDPSLMEMTEAALRLLSRNPRGFFLFVEGGRIDHGHHESRAYRALTETIMFDDAIERAGQLTSEEDTLSLVTADHSHVFSFGGYPLRGSSIFGLAPGKARDRKAYTVLLYGNGPGYVLKDGARPDVTESESGSPEYRQQSAVPLDEETHAGEDVAVFARGPQAHLVHGVQEQTFIAHVMAFAACLEPYTACDLAPPAGTTDAAHPG
notes: Control for the AP tag
B2: AP-PGRN (alkaline phosphatase fused to human progranulin, huPGRN, GenBank Accession No. BC010577) (ligand)
chain: TRCPDGQFCPVACCLDPGGASYSCCRPLLDKWPTTLSRHLGGPCQVDAHCSAGHSCIFTVSGTSSCCPFPEAVACGDGHHCCPRGFHCSADGRSCFQRSGNNSVGAIQCPDSQFECPDFSTCCVMVDGSWGCCPMPQASCCEDRVHCCPHGAFCDLVHTRCITPTGTHPLAKKLPAQRTNRAVALSSSVMCPDARSRCPDGSTCCELPSGKYGCCPMPNATCCSDHLHCCPQDTVCDLIQSKCLSKENATTDLLTKLPAHTVGDVKCDMEVSCPDGYTCCRLQSGAWGCCPFTQAVCCEDHIHCCPAGFTCDTQKGTCEQGPHQVPWMEKAPAHLSLPDPQALKRDVPCDNVSSCPSSDTCCQLTSGEWGCCPIPEAVCCSDHQHCCPQGYTCVAEGQCQRGSEIVAGLEKMPARRASLSHPRDIGCDQHTSCPVGQTCCPSLGGSWACCQLPHAVCCEDRQHCCPAGYTCNVKARSCEKEVVSAQPATFLARSPHVGVKDVECGEGHFCHDNQTCCRDNRQGWACCPYRQGVCCADRRHCCPAGFRCAARGTKCLRREAPRWDAPLRDPALRQLL
notes: Made in HEK293T cells from pAPtag-5; also called AP-PRGN; AP tagged ligand; not shown: alkaline phosphatase (AP) tag of expression vector pAPtag-5

Tests used:
[1] = target: T1, rat sortilin (Sort1) on E18 rat …; test: AP staining of cultured E18 rat cortical neurons (the neuronal PGRN binding site is identified by the filing as Sort1)
Procedure: Rat (Sprague-Dawley) cortical neurons were isolated from E18 embryos and cultured in vitro for 3-21 days. Cultures were maintained in Neurobasal-A medium supplemented with B27, GLUTAMAX™ (2 mM), sodium pyruvate (1 mM), penicillin, and streptomycin. The binding of 10 nM AP-PGRN or 10 nM AP was detected as a dark reaction product produced by alkaline phosphatase (AP). Binding was measured as follows. The AP tagged ligand (in NBA) was incubated with the cortical neurons for 1 hr at 4° C., washed three times with HBH buffer, fixed with formaldehyde, and after washing again with HBH the neurons were incubated in a 67° C. oven to inactivate the endogenous AP. The tagged AP was then visualized using AP substrate 5-bromo-4-chloro-3-indolyl phosphate/nitro blue tetrazolium, which results in a dark precipitate. […] The addition of 100 nM Flag-PGRN displaced 10 nM AP-PGRN (FIG. 1C, middle panel).

[2] = target: T2, mouse sortilin-1 (Sort1; GenBank …); test: AP staining of transfected COS-7 cells
[3] = target: T2, mouse sortilin-1 (Sort1; GenBank …); test: saturation binding of AP-tagged ligand to COS-7 cells transfected with sortilin (PGRN-R), bound AP read as optical density of the reaction product
Procedure: (§1) FIG. 2B is a graph depicting the saturation analysis of binding of AP-PGRN to COS-7 cells transfected with the PRGN-R, sortilin. The binding of AP-PGRN, measured by the optical density (OD units) of AP ligand bound, was determined as a function of ligand concentration (nM).
(§2) To determine the molecular nature of the neuronal binding site of PGRN, expression cloning experiments utilizing AP-PGRN as a tagged ligand were conducted. COS-7 (ATCC No. CRL-1651) cells were transfected with expression vectors containing mouse cDNAs using FUGENE® 6 according to manufacturer's specifications (Roche). An arrayed adult mouse brain cDNA library (OriGene) of 225,000 clones was screened in pools of 5,000 at a time, as well as a library consisting of 352 individual preparations of cDNAs encoding transmembrane proteins (GFC-transfection array panel, OriGene). […] In both cases, unlabeled 100 nM PGRN displaced binding (FIG. 2A, lower-right panel, and FIG. 3A, right panel).

[4] = target: T4, human SorLA (GenBank Accession No. U60975) expressed in COS-7 cells (human, UniProt Q92673 82-2214); test: AP staining of transfected COS-7 cells
T4 construct: whole, on cells
T4 sequence (Q92673 82-2214, one chain of several): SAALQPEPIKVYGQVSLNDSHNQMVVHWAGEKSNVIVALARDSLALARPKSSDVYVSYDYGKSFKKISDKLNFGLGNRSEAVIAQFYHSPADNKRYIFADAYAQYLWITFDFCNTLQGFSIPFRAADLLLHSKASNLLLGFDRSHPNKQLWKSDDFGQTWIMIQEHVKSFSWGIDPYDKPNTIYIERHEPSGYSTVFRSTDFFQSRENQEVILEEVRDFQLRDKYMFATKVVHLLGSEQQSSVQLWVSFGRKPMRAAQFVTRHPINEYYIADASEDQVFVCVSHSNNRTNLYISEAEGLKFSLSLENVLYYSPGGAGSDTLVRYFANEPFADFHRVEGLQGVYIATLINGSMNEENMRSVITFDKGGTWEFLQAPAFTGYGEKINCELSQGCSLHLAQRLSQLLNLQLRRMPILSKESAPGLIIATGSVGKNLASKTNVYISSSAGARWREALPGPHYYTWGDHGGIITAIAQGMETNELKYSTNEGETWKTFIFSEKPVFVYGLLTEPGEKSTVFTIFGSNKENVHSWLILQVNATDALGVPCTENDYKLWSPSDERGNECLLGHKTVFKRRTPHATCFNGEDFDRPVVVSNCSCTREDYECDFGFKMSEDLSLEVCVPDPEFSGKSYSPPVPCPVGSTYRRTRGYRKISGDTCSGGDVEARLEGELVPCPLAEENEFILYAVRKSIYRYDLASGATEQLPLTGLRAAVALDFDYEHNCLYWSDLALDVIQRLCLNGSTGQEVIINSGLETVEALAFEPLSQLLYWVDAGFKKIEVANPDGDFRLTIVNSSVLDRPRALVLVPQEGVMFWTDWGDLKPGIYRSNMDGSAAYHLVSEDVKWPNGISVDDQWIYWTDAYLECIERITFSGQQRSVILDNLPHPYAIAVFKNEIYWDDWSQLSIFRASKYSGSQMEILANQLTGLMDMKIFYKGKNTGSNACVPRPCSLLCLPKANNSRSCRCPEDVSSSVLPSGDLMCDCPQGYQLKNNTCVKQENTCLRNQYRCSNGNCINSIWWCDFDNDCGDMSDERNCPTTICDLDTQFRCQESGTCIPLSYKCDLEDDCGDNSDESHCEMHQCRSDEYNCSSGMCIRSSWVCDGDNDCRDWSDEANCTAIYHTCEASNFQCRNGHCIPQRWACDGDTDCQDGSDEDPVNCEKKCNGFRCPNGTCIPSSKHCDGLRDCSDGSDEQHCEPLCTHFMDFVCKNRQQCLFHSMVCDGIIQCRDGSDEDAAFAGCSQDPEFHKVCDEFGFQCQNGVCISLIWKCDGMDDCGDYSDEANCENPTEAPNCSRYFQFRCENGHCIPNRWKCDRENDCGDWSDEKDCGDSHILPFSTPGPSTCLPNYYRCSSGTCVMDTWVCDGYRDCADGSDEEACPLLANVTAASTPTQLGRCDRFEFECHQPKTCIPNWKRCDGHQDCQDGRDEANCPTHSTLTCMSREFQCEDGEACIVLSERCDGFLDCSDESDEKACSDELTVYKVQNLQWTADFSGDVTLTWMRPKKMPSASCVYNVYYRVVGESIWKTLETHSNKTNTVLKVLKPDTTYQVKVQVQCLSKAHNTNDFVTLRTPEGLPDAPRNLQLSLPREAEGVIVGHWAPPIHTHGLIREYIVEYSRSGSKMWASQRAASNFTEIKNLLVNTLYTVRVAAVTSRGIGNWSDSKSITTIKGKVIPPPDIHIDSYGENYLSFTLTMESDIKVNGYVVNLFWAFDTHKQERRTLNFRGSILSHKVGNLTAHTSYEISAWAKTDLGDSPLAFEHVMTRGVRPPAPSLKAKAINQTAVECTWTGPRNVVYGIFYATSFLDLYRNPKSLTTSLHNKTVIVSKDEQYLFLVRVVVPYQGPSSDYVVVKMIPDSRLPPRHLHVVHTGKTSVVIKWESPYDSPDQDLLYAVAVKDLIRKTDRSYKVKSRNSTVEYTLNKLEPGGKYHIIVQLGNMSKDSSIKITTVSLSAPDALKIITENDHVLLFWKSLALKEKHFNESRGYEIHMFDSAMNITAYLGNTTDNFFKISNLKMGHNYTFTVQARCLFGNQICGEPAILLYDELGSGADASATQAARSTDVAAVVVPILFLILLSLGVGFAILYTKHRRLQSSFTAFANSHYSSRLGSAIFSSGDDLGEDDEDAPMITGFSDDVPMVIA

[5] = target: T3, mouse SorCS1 (GenBank Accession No. …); test: AP staining of transfected COS-7 cells
[6] = target: T1, rat sortilin (Sort1) on E18 rat …; test: saturation binding of AP-PGRN to cultured cortical neurons (FIG. 1D); neuronal PGRN binding sites, identified by the filing as Sort1; cultured cortical neurons (FIG. 1D), species not stated
[7] = target: T2, mouse sortilin-1 (Sort1; GenBank …); test: saturation binding of AP-PGRN to Sort1-transfected COS-7 cells, bound AP activity (OD); Sort1-transfected COS-7 cells, FIG. 2B
Procedure: as §1, §2

Row | Binder | binding result [1] | binding result [2] | EC50 (read off the curve) [3] [nM] | binding result [4] | binding result [5] | Kd [6] [nM] | Kd [7] [nM]
1 | B1 | no binding (tested: 10 nM) | no binding (tested: 20 nM) |  |  |  |  | 
2 | B2 |  |  | ~3 | no binding (tested: 120 nM) | no binding (tested: 120 nM) | ~20 | 6
